This note sets out measurements from PMC4215650 (Nature, 2014).

The labels stand for the following.
B1: Bmi1(2-109), as it stands in the crystal (domain or fragment)
chain: HRTTRIKITELNPHLMCVLCGGYFIDATTIIECLHSFCKTCIVRYLETSKYCPICDVQVHKTRPLLNIRSDKTLQDIVYKLVPGLFKNEMKRRRDFYAAHPSADAANG
B2: Ring1B(2-116), as it stands in the crystal (domain or fragment)
chain: SQAVQTNGTQPLSKTWELSLYELQRTPQEAITDGLEIVVSPRSLHSELMCPICLDMLKNTMTTKECLHRFCADCIITALRSGNKECPTCRKKLVSKRSLRPDPNFDALISKIYPS

Test in all cases: crystal structure
In experiment [1] the target is B2.
The target of experiment [2] is histone H2B, Xenopus, in the nucleosome core particle (Xenopus, UniProt P02281 5-126).
Experiment [3] deals with histone H4, Xenopus, in the nucleosome core particle (Xenopus, UniProt P62799 2-103).

As to B1, the binding result in experiment [1], in experiment [2] and in experiment [3] was “binds” in each case.
With B2, in experiment [2], the binding result is reported as “binds”.
